Assay results taken from publication PMC11215725, “A Potent Sybody Selectively Inhibits α-Synuclein Amyloid Formation by Binding to the P1 Region” (Journal of Medicinal Chemistry, 2024).
* marks the point of attachment. Biotin = O=C1N[C@H]2[C@H](CS[C@H]2CCCCC(=O)*)N1

What was measured:
[1] = molecular target: WT α-syn stabilized oligomers (Homo sapiens (Human)., UniProt P37840); experiment: ELISA; 80 pmol αSP1 immobilised on the plate, 160 pmol of each α-syn species added, detection by anti-α-syn-HRP; blocking with 5% goat serum in TBS; conditions: both partners purified
[2] = molecular target: wild-type α-synuclein, monomeric (UniProt P37840); experiment: ELISA; indirect ELISA: 30 μM WT or ΔP1 α-syn monomers coated on MaxiSorp plate, 1-10 μM αSP1 for 1 h at room temperature, detection by anti-six-His HRP; TBS; conditions: both partners purified
[3] = molecular target: WT α-syn samples collected after aggregation for 48 h (Homo sapiens (Human)., UniProt P37840); experiment: ELISA; indirect ELISA: aliquots of a 20 μM WT α-syn aggregation taken at 0, 5, 10, 24 and 48 h coated on the plate, 2 μM αSP1, detection by anti-six-His HRP; conditions: both partners purified
[4] = molecular target: T1, synthetic peptide with the sequence of P1 from α-syn (Homo sapiens (Human)., SMILES CC(C)C[C@H](NC(=O)[C@@H](NC(=O)CNC(=O)CCCC[C@@H]1SC[C@@H]2NC(=O)N[C@@H]21)C(C)C)C(=O)N[C@@H](Cc1ccc(O)cc1)C(=O)N[C@H](C(=O)NCC(=O)N[C@@H](CO)C(N)=O)C(C)C); experiment: ELISA; screen in 96 wells: protein A coated, anti-c-Myc antibody, sybody from diluted periplasmic extract captured, then 500 nM biotinylated peptide, streptavidin-HRP; TBS with 0.5% BSA; OD 650 nm; conditions: one partner purified
T1 construct: P1 region of α-synuclein, residues 36-42; also called P1 peptide; peptide P1; source: synthetic peptide, bought: GenScript
T1 chain: Biotin-GVLYVGS-NH2

Measured: binding result

B1: sybody αSP1 (VHH)
VHH: QVQLVESGGGLVQAGGSLRLSCAASGFPVRHQWMEWYRQAPGKEREWVAAISSFGQWTKYADSVKGRFTISRDNAKNTVYLQMNSLKPEDTAVYYCVVEVGYEYYGQGTQVTVSA
notes: His35 stands in CDR1; Synthetic single-domain antibody; results: NTA-Alexa Fluor 647; this is not a covalent change of a residue; also called aSP1; source: in periplasmic extract for the screen; purified (Ni-NTA, SEC) for all other experiments; not shown: Myc, C-terminal, kept; His tag, C-terminal, kept
binds: [1] | [2] | [3] | [4]
